This passage reports Km results from patent US4990453A, “Modified pseudomonas putida creatine amidinohydrolase” (Boehringer Mannheim GmbH, priority 1987, dated 1991).

Substrate in data set [1]: CN(CC(=O)O)C(=N)N
The experiment in a line: purified protein, by the assay type. To be noted: other: 37° C., 0.1 mole/liter Tris-HCl (pH 8.0), optimum test conditions, wild type enzyme.

Substrate in data set [2]: CN(CC(=O)O)C(=N)N
The data set can be described thus: purified protein, by the assay type. In kind it is biochemical, Pseudomonas putida. To be noted: other: 37° C., 0.1 mole/liter Tris-HCl (pH 8.0), optimum test conditions, mutant 109 = Val. From the text:
(optimum test conditions)

Substitutions are numbered along the chain they refer to.

B1: Pseudomonas putida creatine amidinohydrolase, wild type, from Escherichia coli DSM 3143 (pBT 2a-1, DSM 3148P) (Pseudomonas putida) (protein)
chain: MQMPKTLRIRNGDKVRSTFSAQEYANRQARLRAHLAAENIDAAIFTSYHNINYYSDFLYCSFGRPYALVVTEDDVISISANIDGGQPWRRTVGTDNIVYTDWQRDNYFAAIQQALPKARRIGIEHDHLNLQNRDKLAARYPDAELVDVAAACMRMRMIKSAEEHVMIRHGARIADIGGAAVVEALGDQVPEYEVALHATQAMVRAIADTFEDVELMDTWTWFQSGINTDGAHNPVTTRKVNKGDILSLNCFPMIAGYYTALERTLFLDHCSDDHLRLWQVNVEVHEAGLKLIKPGARCSDIARELNEIFLKHDVLQYRTFGYGHSFGTLSHYYGREAGLELREDIDTVLEPGMVVSMEPMIMLPEGLPGAGGYREHDILIVNENGAENITKFPYGPEKNIIRK
On to B1, for which the Km in data set [1] came to 25 mM.

B2: Pseudomonas putida creatine amidinohydrolase mutant (Ala109Val and Val355Met), from Escherichia coli DSM 4106 (pBT 119, DSM 4107P) (Pseudomonas putida; … (protein)
chain: B1 chain with A109V, V355M
notes: made in house; host or cells: Escherichia coli DSM 4106 (plasmid pBT 119, DSM 4107P)
For B2, the Km in data set [2] (355 = Met) is 16 mM.

B3: Pseudomonas putida creatine amidinohydrolase mutant (amino acid 109 = Val; Ala109Val), from Escherichia coli DSM 4105 (pBT 109, DSM 4108P) (Pseudomonas putida; … (protein)
chain: B1 chain with A109V
notes: made in house; host or cells: Escherichia coli DSM 4105 (plasmid pBT 109, DSM 4108P)
Consider B3, for which the Km in data set [2] amounted to 20 mM.
